# Assay results from PMC12858339 (The Journal of Biological Chemistry, 2025).
# Biological target: T1, calmodulin (CaM), human calmodulin-1 (human, UniProt P0DP23 1-149)
# T1 construct: also called CaM-NHS-Red
# Test: MST; Red-NHS-labelled CaM kept constant (466 nM in the results, 50 nM in the methods), (myr)MAPP titrated; 50 mM Tris-HCl, 100 mM NaCl, 0.05% Tween 20, pH 7.4, with 20 mM CaCl2; 25 °C; triplicates
# Details: both partners purified
row,Binder,Kd [µM]
1,"myristoylated M-PMV MA protein extended by 18 amino acids of the downstream phosphoprotein region of Gag (myrMAPP) (domain or fragment, N-terminal myristoyl; uniformly 15N-labelled in some NMR and mixed-isotope XL-MS samples, source: E. coli BL21 (DE3), co-transformed with a plasmid coding yeast N-myristoyl transferase, purified (Ni-NTA agarose)) GQELSQHERYVEQLKQALKTRGVKVKYADLLKFFDFVKDTCPWFPQEGTIDIKRWRRVGDCFQDYYNTFGPEKVPVTAFSYWNLIKELIDKKEVNPQVMAAVAQTEEILKSNSQTDL",4.2
2,non-myristoylated M-PMV MA protein extended by 18 amino acids of the downstream phosphoprotein region of Gag (MAPP) (domain or fragment) GQELSQHERYVEQLKQALKTRGVKVKYADLLKFFDFVKDTCPWFPQEGTIDIKRWRRVGDCFQDYYNTFGPEKVPVTAFSYWNLIKELIDKKEVNPQVMAAVAQTEEILKSNSQTDL,33
